Test results as given in PMC6070888.
Like-named read-outs stand apart in the source and are kept apart here.

Biological target: T1, ZafA ZF3-6 (Aspergillus fumigatus) (UniProt Q4WT96)
T1 sequence: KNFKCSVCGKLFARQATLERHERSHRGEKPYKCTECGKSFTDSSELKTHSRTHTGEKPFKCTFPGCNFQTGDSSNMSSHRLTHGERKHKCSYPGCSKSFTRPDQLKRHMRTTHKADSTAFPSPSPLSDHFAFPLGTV
Experiment: EMSA

| Sequence | binding (EMSA buffer 25 mM Tris-HCl pH 8, 50 mM KCl, 1 mM MgCl2, 12.5% glycerol, 1 mM DTT, 0.2 ug BSA, protein dialyzed in buffer with 10 uM ZnCl2, 30 C (EMSA 1 h …)) | binding |
| --- | --- | --- |
| ATGTCCGCACGGAGAGCCACAAACGAGCGGGGCCCCGTACGTGCTCTCCTACCCCAGGATCGCATCCCCGCATAGCTGAACATCTATATAAAGACCCCCAAGGTTCTCAGTCTCACCAACATCATCAACCAACAATCAACAGTTCTCTACTCAGTTAATTAGAACTCTTCCAATCCTATCACCTCGCCTCACCATGGCCATCTAGAGGTACCA (double strand) [PalcA wild type 213 bp EMSA fragment] | binds |  |
| TGGTACCTCTAGATGGCCATGGTGAGGCGAGGTGATAGGATTGGAAGAGTTCTAATTAACTGAGTAGAGAACTGTTGATTGTTGGTTGATGATGTTGGTGAGACTGAGAACTGAGGGGGTCTTTATATAGATGTTCAGCTATGCGGGGATGCGATCCTGGGGTAGGAGAGCACGTACGGGGCCCCGCTCGTTTGTGGCTCTCCGTGCGGACAT (double strand) [PalcA mutant (CAAGGT to CTCAGT)] |  | no binding |
